According to US20260193307A1 (ASKGENE PHARMA, published 2026):

B1: K1-69H5 scFv-Fc (JR8.144.3) (Fc fusion)
chain: EIVLTQSPGTLSLSPGERATLSCRASQSVSSSYLAWYQQKPGQAPRLLIYGASSRATGIPDRFSGSGSGTDFTLTISRLEPEDFAVYYCQQYSRAPGTFGQGTKVEIKAGGGGSGGGGSGGGGSQVQLVQSGAEVKKPGSSVKVSCKASGGTFSSYGIHWVRQAPGQGLEWMGGIIPILGTANYAQKFQGRVTITADESTSTAYMELSSLRSEDTAVYYCAVPFFDVWGQGTLVTVSS
notes: Purified scFv-Fc homodimer; also called JR8.144.3 K1-69H5; not shown: Fc fragment (human Fc domain)
B2: K1-69C7 scFv-Fc (JR8.153.1) (Fc fusion)
chain: DIQMTQSPSSLSASVGDRVTITCRASQDISNYLNWYQQKPGKAPKLLIYGASSLQSGVPSRFSGSGSGTDFTLTISSLQPEDFATYYCQQTYTIPLTFGQGTKVEIKAGGGGSGGGGSGGGGSQVQLVQSGAEVKKPGSSVKVSCKASGGTFTSYAINWVRQAPGQGLEWMGRIIPIIGRVDYAQKFQGRVTITADESTSTAYMELSSLRSEDTAVYYCARGFVGGFDVWGQGTLVTVSS
notes: Purified scFv-Fc homodimer; also called JR8.153.1 K1-69C7; not shown: Fc fragment (human Fc domain)
B3: K3-30B12 scFv-Fc (JR8.156.6) (Fc fusion)
chain: DIQMTQSPSSLSASVGDRVTITCRASQDISTYLNWYQQKPGKAPKLLIYDASSLQSGVPSRFSGSGSGTDFTLTISSLQPEDFATYYCQQSYSAPLTFGQGTKVEIKAGGGGSGGGGSGGGGSEVQLLESGGGLVQPGGSLRLSCAASGFTFSTYAMSWVRQAPGKGLEWVSTISGSGVRTYYADSVKGRFTISRDNSKNTLYLQMNSLRAEDTAVYYCARETYIYGPFDVWGQGTLVTVSS
notes: Purified scFv-Fc homodimer; also called JR8.156.6 K3-30B12; not shown: Fc fragment (human Fc domain)
B4: K3-15F7 scFv-Fc (JR8.144.4) (Fc fusion)
chain: DIQMTQSPSSLSASVGDRVTITCRASQDIRRYLNWYQQKPGKAPKLLIYAASSLQSGVPSRFSGSGSGTDFTLTISSLQPEDFATYYCQQAYSIPLTFGQGTKVEIKGGGGSGGGGSGGGGSEVQLVESGGGLVKPGGSLRLSCAASGFTFSNAWMSWVRQAPGKGLEWVGRIKSKTAGGTTDYAAPVKGRFTISRDDSKNTLYLQMNSLKTEDTAVYYCARDWWYLDFDYWGQGTLVTVSS
notes: Purified scFv-Fc homodimer; also called JR8.144.4 K3-15F7; not shown: Fc fragment (human Fc domain)

target: T1, IL-2 (UniProt P60568 21-153); experiment: cell-based or functional assay
T1 sequence (P60568 21-153 limits assumed): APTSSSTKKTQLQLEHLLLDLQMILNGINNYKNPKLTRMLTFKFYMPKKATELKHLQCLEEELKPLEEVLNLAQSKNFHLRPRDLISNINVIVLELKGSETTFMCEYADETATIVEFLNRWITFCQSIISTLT

Q: Which “IC50, CTLL2 cell-based IL-2 activity inhibition assay (50 nM IL-2)” value does the source give for B1 here?
A: Its value is 11.3 nM.

Q: Which “IC50, CTLL2 cell-based IL-2 activity inhibition assay (50 nM IL-2)” value does the source give for B2 here?
A: Its value is 7 nM.

target: T1, IL-2; experiment: ForteBio (BLI), purified scFv-Fc to IL-2

Q: Which results are given for B3?
A: Kd: 0.605 nM; Response: 3.1

Q: Which Kd does the source give for B4 here?
A: The Kd was under 0.001 nM.

Q: And the Response?
A: The Response was 3.

Q: For B1, which Kd is on record?
A: The Kd was under 0.001 nM.

Q: What about the Response of the same binder?
A: Its Response is 3.

Q: With B2 as the binder, how does the Kd read?
A: The Kd was 0.117 nM.

Q: And the Response?
A: Its Response is 3.5.
